Results published in publication doi:10.1101/2022.01.04.474899 (bioRxiv, 2022).

Target: the molecule itself
Assay: SDS-PAGE immunoblot

B1: recombinant human asprosin with C-terminal 2×Strep-tag II (natural protein, UniProt P35555 2732-2871, looked up)
chain: STNETDASNIEDQSETEANVSLASWDVEKTAIFAFNISHVSNKVRILELLPALTTLTNHNRYLIESGNEDGFFKINQKEGISYLHFTKKKPVAGTYSLQISSTPLYKKKELNQLEDKYDKDYLSGELGDNLKMKIQVLLH
stoichiometry N: 4
